Results taken from patent US9266940 (Novo Nordisk, dated 2016).
Numbered stars: 1 amine (or outer) side, 2 acyl side, 3 side chain; on linkers, the order of the positions; unused ones are H or OH. Side chains are listed from the residue outwards. Ends that are not written are not given here. * marks the point of attachment. Decanoyl(10-(4-HOOC-PhO)) = O=C(O)c1ccc(OCCCCCCCCCC(=O)*)cc1; d(γGlu) = O=C(O)[C@@H](CCC(=O)[*:2])N[*:1]; γGlu = O=C(O)[C@H](CCC(=O)[*:2])N[*:1]; C14 diacid = O=C(O)CCCCCCCCCCCCC(=O)*; AEEA = NCCOCCOCC(=O)O

Tests used:
human GLP-1 receptor [1] = target: T1, human GLP-1 receptor (human, UniProt P43220 24-463); experiment: cell-based or functional assay
human GLP-1 receptor [2] = target: T1, human GLP-1 receptor; experiment: SPA displacement assay; IC50 at 2.0% HSA over IC50 at 0.001% HSA
Description: (§1) A shift in the binding affinity, $IC50$, is an indication that the peptide in question binds to albumin, and thereby a prediction of a potential protracted pharmacokinetic profile of the peptide in question in animal models.
(§2) 50 ul (micro liter) HSA ("high albumin" experiment containing 2% HSA), or buffer ("low albumin" experiment containing 0.001% HSA), was added to Optiplate, and 25 ul of test compounds were added. 5-10 ug membrane protein/sample was added (50 ul) corresponding to 0.1-0.2 mg protein/ml (to be preferably optimised for each membrane preparation). SPA-particles (Wheatgerm agglutinin SPA beads, Perkin Elmer, #RPNQ0001) were added in an amount of 0.5 mg/well (50 ul). […] The plates were sealed with PlateSealer and incubated for 120 minutes at 30° C. while shaking. The plates were centrifuged (1500 rpm, 10 min) and counted in Topcounter.

human GLP-1 receptor [3] = target: T1, human GLP-1 receptor; experiment: SPA, displacement of 125I-GLP-1(7-36)NH2 from hGLP-1R BHK membranes, high HSA (2.0%)
Description: as §1, §2

human GLP-1 receptor [4] = target: T1, human GLP-1 receptor; experiment: SPA, displacement of 125I-GLP-1(7-36)NH2 from hGLP-1R BHK membranes, low HSA (0.001%)
Description: as §1, §2

| Binder | EC50/pM (in vitro potency, cAMP formation, AlphaScreen) (human GLP-1 receptor [1]) [pM] | Ratio [(IC50/nM) high HSA]/[(IC50/nM) low HSA] (human GLP-1 receptor [2]) | IC50 (human GLP-1 receptor [3]) [nM] | IC50 (human GLP-1 receptor [4]) [nM] |
| --- | --- | --- | --- | --- |
| HAEGTFTSDVSSYLEEQAVRK([AEEA-AEEA-γGlu-Decanoyl(10-(4-HOOC-PhO))])FIAWLVRGRK([AEEA-AEEA-γGlu-Decanoyl(10-(4-HOOC-PhO))]) | 143 | 217 | 33 | 0.15 |
| HAEGTFTSDVSSYLEGQAVRK([AEEA-AEEA-γGlu-γGlu-Decanoyl(10-(4-HOOC-PhO))])FIAWLVQGK([AEEA-AEEA-γGlu-γGlu-Decanoyl(10-(4-HOOC-PhO))])G (also called 23) | 140 | 47 | 40 | 0.85 |
| HAEGTFTSDVSSYLEK([AEEA-AEEA-γGlu-C14 diacid])QAVRK([AEEA-AEEA-γGlu-C14 diacid])FIEWLVQGRG (also called 11) | 81 | 926 | 213 | 0.23 |
| HAEGTFTSDVSSYLEK([γGlu-AEEA-AEEA-C14 diacid])QAVRK([γGlu-AEEA-AEEA-C14 diacid])FIEWLVQGRG (also called 20) | 67 | 1750 | 333 | 0.19 |
| HAEGTFTSDVSSYLEEEAVRK([AEEA-AEEA-γGlu-C14 diacid])FIAHLVQGRK([AEEA-AEEA-γGlu-C14 diacid]) (also called 17) | 17 | 387 | 174 | 0.45 |
| HAEGTFTSDVSSYLEEQK([AEEA-AEEA-γGlu-Decanoyl(10-(4-HOOC-PhO))])VRK([AEEA-AEEA-γGlu-Decanoyl(10-(4-HOOC-PhO))])FIAWLVRGRG (also called 28) | 68 | 144 | 29 | 0.2 |
| HAEGTFTSDVSSYLEEQAARK([AEEA-AEEA-γGlu-Decanoyl(10-(4-HOOC-PhO))])FIAWLVRGRK([AEEA-AEEA-γGlu-Decanoyl(10-(4-HOOC-PhO))]) | 26 | 219 | 42 | 0.19 |
| HAEGTFTSDVSSYLEEQK([AEEA-AEEA-γGlu-C14 diacid])VRK([AEEA-AEEA-γGlu-C14 diacid])FIAHLVRGRG (also called 24) | 70 | 18 | 50 | 2.74 |
| HAEGTFTSDVSSYLEGQAVRK([AEEA-AEEA-γGlu-C14 diacid])FIAHLVQGRK([AEEA-AEEA-γGlu-C14 diacid]) (also called 16) | 21 | 127 | 25 | 0.2 |
| HAEGTFTSDVSSYLEGQAVRK([γGlu-AEEA-AEEA-d(γGlu)-Decanoyl(10-(4-HOOC-PhO))])FIAWLVQGK([γGlu-AEEA-AEEA-d(γGlu)-Decanoyl(10-(4-HOOC-PhO))])G (also called 26) | 200 | 143 | 54 | 0.38 |
